The target of one data set is T1, SRC-1 (1139C) (Homo sapiens, UniProt Q15788).
T1 construct: expressed in transfected cells; host or cells: CV-1
T1 sequence (Q15788 1139-1441 limits assumed): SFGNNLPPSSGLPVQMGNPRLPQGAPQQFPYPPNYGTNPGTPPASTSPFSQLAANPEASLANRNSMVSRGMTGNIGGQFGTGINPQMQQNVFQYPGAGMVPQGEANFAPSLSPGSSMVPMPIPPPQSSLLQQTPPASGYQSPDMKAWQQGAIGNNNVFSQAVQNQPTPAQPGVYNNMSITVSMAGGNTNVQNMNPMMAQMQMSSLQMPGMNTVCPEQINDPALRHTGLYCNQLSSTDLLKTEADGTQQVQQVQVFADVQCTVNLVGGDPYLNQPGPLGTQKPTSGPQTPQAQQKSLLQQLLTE
T1 sequence (Q6EMB2 627-838 partner limits assumed): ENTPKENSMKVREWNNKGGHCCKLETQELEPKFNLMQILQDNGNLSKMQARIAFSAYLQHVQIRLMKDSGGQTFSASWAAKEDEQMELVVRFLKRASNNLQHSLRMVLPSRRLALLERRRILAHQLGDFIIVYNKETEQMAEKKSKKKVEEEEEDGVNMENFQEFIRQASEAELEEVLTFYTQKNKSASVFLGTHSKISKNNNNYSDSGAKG
Kind of data set: Mammalian two-hybrid assay in CV-1 cells with SRC-1 C-terminal fragment. The class given is cell-based. The text has this: FIG. 2A-2C illustrate the isolation and characterization of the partial clone of the protein that binds to TIF2.4. […] Five clones were obtained but only two (clones I and V) contained a protein that was needed for colony growth in the presence of the pSos/TIF2.4 fusion protein. After initial screening, only clone I (also named 6-6CL1) was selected for further investigation. FIG. 2B and FIG. 2C illustrate the selectivity of 6-6CL1 interactions with TIF2.4 in mammalian two-hybrid assays. Triplicate samples of CV-1 cells in 24-well plates were transiently transfected with the indicated GAL-DBD and VP16-AD plasmids along with the GAL4-regulated reporter, pFRLuc. The relative luciferase activity, normalized for the activity of the internal Renilla control, was determined and plotted as the average±S.D. The much lower activity of GAL/TIF2.4m123 was previously shown not to be due to unequal levels of protein expression (He et al., 2002). Similar results were obtained in three additional experiments. […] Triplicate samples of CV-1 cells in 24-well plates were analyzed as in (B&C) after being transiently transfected with GAL±6-6CL1 constructs and pFRLuc reporter along with VP16 chimeras of SRC-1 (FIG. 2D) or TIF2 (FIG. 2E) segments. Similar results for SRC-1 were obtained in two additional experiments (ND=not determined). […]

Data set [1] has as its target T2, glucocorticoid receptor (GR) (Rattus norvegicus, UniProt P06536).
T2 sequence (P06536 1-795): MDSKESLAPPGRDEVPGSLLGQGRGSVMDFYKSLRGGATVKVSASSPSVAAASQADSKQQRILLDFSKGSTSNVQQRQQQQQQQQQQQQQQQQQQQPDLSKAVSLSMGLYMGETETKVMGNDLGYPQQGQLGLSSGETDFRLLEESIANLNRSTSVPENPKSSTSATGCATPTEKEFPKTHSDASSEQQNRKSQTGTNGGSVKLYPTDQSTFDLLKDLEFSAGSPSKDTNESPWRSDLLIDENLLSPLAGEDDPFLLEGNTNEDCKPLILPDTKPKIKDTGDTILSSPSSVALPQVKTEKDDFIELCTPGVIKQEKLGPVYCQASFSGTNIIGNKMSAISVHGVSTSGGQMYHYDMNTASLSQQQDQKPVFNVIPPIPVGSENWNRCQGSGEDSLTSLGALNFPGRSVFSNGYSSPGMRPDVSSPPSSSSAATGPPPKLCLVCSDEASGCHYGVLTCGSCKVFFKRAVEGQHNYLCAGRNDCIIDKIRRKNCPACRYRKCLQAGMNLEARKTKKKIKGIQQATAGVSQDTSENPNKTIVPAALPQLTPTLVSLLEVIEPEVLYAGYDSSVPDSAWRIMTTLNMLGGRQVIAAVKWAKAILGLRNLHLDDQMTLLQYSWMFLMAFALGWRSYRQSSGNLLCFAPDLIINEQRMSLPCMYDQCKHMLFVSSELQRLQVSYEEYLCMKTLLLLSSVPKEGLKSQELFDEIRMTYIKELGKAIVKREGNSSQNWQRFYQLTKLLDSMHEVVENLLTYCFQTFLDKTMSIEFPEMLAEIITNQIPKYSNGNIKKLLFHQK
Kind of data set: GR-mediated induction of GREtkLUC reporter, transient transfection of CV-1 cells.
Experimental: Triplicate samples of CV-1 cells were transiently transfected with GR (6 ng)±TIF2 (20 ng)±STAMP (160 ng) plasmids, GREtkLUC reporter, and Renilla control plasmid. […] FIG. 4B illustrates the fold changes in GR induction parameters by STAMP and TIF2. […] The fold-increase in each parameter was determined as follows: for EC50s, fold increase=[EC50]GR/[EC50]GR+factor; for partial agonist activity and fold Dex induction, fold increase=activityGR+factor/activityGR). The average fold increases were then plotted±S.E.M (n=4).
CV-1 cells were transiently transfected with GR (6 ng)±TIF2 (20 ng)±STAMP (160 ng) plasmids, GREtkLUC reporter, and Renilla control plasmid, and induced with ethanol± the indicated concentrations of Dex.
Tests were run to determine whether exogenous STAMP can modulate the EC50 of glucocorticoids and the partial agonist activity of antiglucocorticoids in the transient transfection assays where GR induced gene expression from a GREtkLUC reporter.

B1: 6-6CL1: STAMP fragment amino acids 623-834, coactivator interaction domain (CID) (protein)
chain: ENTPKENSMKVREWNNKGGHCCKLETQELEPKFNLMQILQDNGNLSKMQARIAFSAYLQHVQIRLMKDSGGQTFSASWAAKEDEQMELVVRFLKRASNNLQHSLRMVLPSRRLALLERRRILAHQLGDFIIVYNKETEQMAEKKSKKKVEEEEEDGVNMENFQEFIRQASEAELEEVLTFYTQKNKSASVFLGTHSKISKNNNNYSDSGAKG
As for B1, the “interaction with C-terminal portion of SRC-1 (1139C)” value with SRC-1 (1139C) is “strongly interacted”.

B2: STAMP: SRC-1 and TIF2 Associated Modulatory Protein, 1277 amino acid human polypeptide, expressed from transfected plasmid (protein)
chain: MARDLEETASSSEDEEVISQEDHPCIMWTGGCRRIPVLVFHADAILTKDNNIRVIGERYHLSYKIVRTDSRLVRSILTAHGFHEVHPSSTDYNLMWTGSHLKPFLLRTLSEAQKVNHFPRSYELTRKDRLYKNIIRMQHTHGFKVFHILPQTFLLPAEYAEFCNSYSKDRGPWIVKPVASSRGRGVYLINNPNQISLEENILVSRYINNPLLIDDFKFDVRLYVLVTSYDPLVIYLYEEGLARFATVRYDQGAKNIRNQFMHLTNYSVNKKSGDYVSCDDPEVEDYGNKWSMSAMLRYLKQEGRDTTALMAHVEDLIIKTIISAELAIATACKTFVPHRSSCFELYGFDVLIDSTLKPWLLEVNLSPSLACDAPLDLKIKASMISDMFTVVGFVCQDPAQRASTRPIYPTFESSRRNPFQKPQRCRPLSASDAEMKNLVGSAREKGPGKLGGSVLGLSMEEIKVLRRVKEENDRRGGFIRIFPTSETWEIYGSYLEHKTSMNYMLATRLFQDRMTADGAPELKIESLNSKAKLHAALYERKLLSLEVRKRRRRSSRLRAMRPKYPVITQPAEMNVKTETESEEEEEVALDNEDEEQEASQEESAGFLRENQAKYTPSLTALVENTPKENSMKVREWNNKGGHCCKLETQELEPKFNLMQILQDNGNLSKMQARIAFSAYLQHVQIRLMKDSGGQTFSASWAAKEDEQMELVVRFLKRASNNLQHSLRMVLPSRRLALLERRRILAHQLGDFIIVYNKETEQMAEKKSKKKVEEEEEDGVNMENFQEFIRQASEAELEEVLTFYTQKNKSASVFLGTHSKISKNNNNYSDSGAKGDHPETIMEEVKIKPPKQQQTTEIHSDKLSRFTTSAEKEAKLVYSNSSSGPTATLQKIPNTHLSSVTTSDLSPGPCHHSSLSQIPSAIPSMPHQPTILLNTVSASASPCLHPGAQNIPSPTGLPRCRSGSHTIGPFSSFQSAAHIYSQKLSRPSSAKAGSCYLNKHHSGIAKTQKEGEDASLYSKRYNQSMVTAELQRLAEKQAARQYSPSSHINLLTQQVTNLNLATGIINRSSASAPPTLRPIISPSGPTWSTQSDPQAPENHSSSPGSRSLQTGGFAWEGEVENNVYSQATGVVPQHKYHPTAGSYQLQFALQQLEQQKLQSRQLLDQSRARHQAIFGSQTLPNSNLWTMNNGAGCRISSATASGQKPTTLPQKVVPPPSSCASLVPKPPPNHEQVLRRATSQKASKGSSAEGQLNGLQSSLNPAASVPITSSTDPAHTKI
With B2, in data set [1] (STAMP alone, no exogenous coactivators, low GR, 1 μM Dex-Mes, S.E.M., n=6, P=0.023), the “increase in the partial agonist activity of the antagonist Dex-Mes” value is listed as 1.16±0.05 fold. Moreover, in data set [1] (STAMP alone, no exogenous coactivators, low GR, Dex, S.E.M., n=6, P=0.0074), the “shift in the dose-response curve to lower steroid concentrations” value was 1.54±0.12 fold. Moreover, in data set [1] (STAMP alone, S.E.M., n=6), the “fold induction by 1 μM Dex, fold increase” value was 0.93±0.08 fold and the “total amount of gene product induced by 1 μM Dex, fold increase” value is 1.26±0.05 fold. Also, the “fold induction (above basal activity) with 1 μM Dex” value in data set [1] (both with and without added TIF2 (FIG. 4B)) is listed as “increases the fold induction”.

(Values after patent US7867500B2, “Cofactor that modulates steroid receptor activities” (The United States of America as represented by the …, priority 2004, dated 2011).)
